Experimental data taken from the supplement of paper PMC5998384.

Columns and labels:
HeLa Kyoto [1] = experiment: solubility in G1/S (NP-40 vs SDS abundance) (log2 ratio); higher = more soluble; conditions: cell cycle stage: G1/S
HeLa Kyoto [2] = experiment: solubility change mitosis vs G1/S (difference of NP-40 vs SDS log2 ratios) (log2 ratio difference); higher = more soluble in mitosis
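Throughout, for solubility change mitosis vs G1/S (difference of NP-40 vs SDS log2 ratios): synchronized HeLa Kyoto cells (double thymidine block for G1/S, nocodazole release for mitosis), protein amounts in NP-40 versus SDS lysates quantified by mass spectrometry, three biological replicates.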
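Throughout, for solubility in G1/S (NP-40 vs SDS abundance): HeLa Kyoto cells arrested at G1/S by double thymidine block, proteins quantified by TMT10plex mass spectrometry in mild NP-40 versus SDS extracts, three biological replicates.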

| Sequence | solubility in G1/S (log2) (HeLa Kyoto [1]) | solubility change mitosis (log2) (HeLa Kyoto [2]) |
| --- | --- | --- |
| MAEAATGFLEQLKSCIVWSWTYLWTVWFFIVLFLVYILRVPLKINDNLSTVSMFLNTLTPKFYVALTGTSSLISGLILIFEWWYFRKYGTSFIEQVSVSHLRPLLGGVDNNSSNNSNSSNGDSDSNRQSVSECKVWRNPLNLFRGAEYNRYTWVTGREPLTYYDMNLSAQDHQTFFTCDSDHLRPADAIMQKAWRERNPQARISAAHEALEINEIRSRVEVPLIASSTIWEIKLLPKCATAYILLAEEEATTIAEAEKLFKQALKAGDGCYRRSQQLQHHGSQYEAQHRRDTNVLVYIKRRLAMCARRLGRTREAVKMMRDLMKEFPLLSMFNIHENLLEALLELQAYADVQAVLAKYDDISLPKSATICYTAALLKARAVSDKFSPEAASRRGLSTAEMNAVEAIHRAVEFNPHVPKYLLEMKSLILPPEHILKRGDSEAIAYAFFHLAHWKRVEGALNLLHCTWEGTFRMIPYPLEKGHLFYPYPICTETADRELLPSFHEVSVYPKKELPFFILFTAGLCSFTAMLALLTHQFPELMGVFAKAMIDIFCSAEFRDWNCKSIFMRVEDELEIPPAPQSQHFQN [ST7] | -0.381 | 0.0591 |
| MAEAATPGTTATTSGAGAAAATAAAASPTPIPTVTAPSLGAGGGGGGSDGSGGGWTKQVTCRYFMHGVCKEGDNCRYSHDLSDSPYSVVCKYFQRGYCIYGDRCRYEHSKPLKQEEATATELTTKSSLAASSSLSSIVGPLVEMNTGEAESRNSNFATVGAGSEDWVNAIEFVPGQPYCGRTAPSCTEAPLQGSVTKEESEKEQTAVETKKQLCPYAAVGECRYGENCVYLHGDSCDMCGLQVLHPMDAAQRSQHIKSCIEAHEKDMELSFAVQRSKDMVCGICMEVVYEKANPSERRFGILSNCNHTYCLKCIRKWRSAKQFESKIIKSCPECRITSNFVIPSEYWVEEKEEKQKLILKYKEAMSNKACRYFDEGRGSCPFGGNCFYKHAYPDGRREEPQRQKVGTSSRYRAQRRNHFWELIEERENSNPFDNDEEEVVTFELGEMLLMLLAAGGDDELTDSEDEWDLFHDELEDFYDLDL [MKRN1] | 0.102 | -0.322 |
| MAEAGAGLSETVTETTVTVTTEPENRSLTIKLRKRKPEKKVEWTSDTVDNEHMGRRSSKCCCIYEKPRAFGESSTESDEEEEEGCGHTHCVRGHRKGRRRATLGPTPTTPPQPPDPSQPPPGPMQH [PPP1R11] | -0.804 | 0.00513 |
| MAEASFGSSSPVGSLSSEDHDFDPTAEMLVHDYDDERTLEEEEMMDEGKNFSSEIEDLEKEGTMPLEDLLAFYGYEPTIPAVANSSANSSPSELADELPDMTLDKEEIAKDLLSGDDEETQSSADDLTPSVTSHETSDFFPRPLRSNTACDGDKESEVEDVETDSGNSPEDLRKEIMIGLQYQAEIPPYLGEYDGNEKVYENEDQLLWCPDVVLESKVKEYLVETSLRTGSEKIMDRISAGTHTRDNEQALYELLKCNHNIKEAIERYCCNGKASQEGMTAWTEEECRSFEHALMLFGKDFHLIQKNKVRTRTVAECVAFYYMWKKSERYDYFAQQTRFGKKRYNHHPGVTDYMDRLVDETEALGGTVNASALTSNRPEPIPDQQLNILNSFTASDLTALTNSVATVCDPTDVNCLDDSFPPLGNTPRGQVNHVPVVTEELLTLPSNGESDCFNLFETGFYHSELNPMNMCSEESERPAKRLKMGIAVPESFMNEVSVNNLGVDFENHTHHITSAKMAVSVADFGSLSANETNGFISAHALHQHAALHSE [MIER3] | 0.163 | -0.33 |
| MAEASSLGRQSPRVVSCLEHSLCPGEPGLQTTAVVSMGSGDHQFNLAEILSQNYSVRGECEEASRCPDKPKEELEKDFISQSNDMPFDELLALYGYEASDPISDRESEGGDVAPNLPDMTLDKEQIAKDLLSGEEEEETQSSADDLTPSVTSHEASDLFPNRSGSRFLADEDREPGSSASSDTEEDSLPANKCKKEIMVGPQFQADLSNLHLNRHCEKIYENEDQLLWDPSVLPEREVEEFLYRAVKRRWHEMAGPQLPEGEAVKDSEQALYELVKCNFNVEEALRRLRFNVKVIRDGLCAWSEEECRNFEHGFRVHGKNFHLIQANKVRTRSVGECVEYYYLWKKSERYDYFAQQTRLGRRKYVPSGTTDADQDLDGSDPDGPGRPRPEQDTLTGMRTDPLSVDGTAGGLDEPGVASDGLPSSEPGPCSFQQLDESPAVPLSHRPPALADPASYQPAVTAPEPDASPRLAVDFALPKELPLISSHVDLSGDPEETVAPAQVALSVTEFGLIGIGDVNPFLAAHPTCPAPGLHSEPLSHCNVMTC [MIER2] | 0.172 | -0.304 |
